The values below come from paper PMC8872791, “MadR mediates acyl CoA-dependent regulation of mycolic acid desaturation in mycobacteria” (Proceedings of the National Academy of Sciences of the …, 2022).

This data set concerns the target T1, MadR (Mycobacterium tuberculosis H37Rv, UniProt P9WMD9 1-234).
T1 sequence: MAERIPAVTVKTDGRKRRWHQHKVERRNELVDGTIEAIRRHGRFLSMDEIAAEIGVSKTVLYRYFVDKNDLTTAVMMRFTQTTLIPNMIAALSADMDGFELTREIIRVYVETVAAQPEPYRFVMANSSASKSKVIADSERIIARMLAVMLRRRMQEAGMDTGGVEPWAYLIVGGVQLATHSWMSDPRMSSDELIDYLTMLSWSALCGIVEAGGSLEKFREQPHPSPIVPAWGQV
As to the kind of experiment: EMSA. The following applies: protein: recombinant; tags: His-tag implied (pET28a, cobalt IMAC); chain copies: 2; blunt. Background: In EMSA bound probe runs differently from free probe, usually more slowly.

B1: desA2 control (substituted motif) (dsDNA)
DNA 1: TTCGAGAACGATGCAAATACGAAGGTATACTACCTCATGGTAATCAAACC
DNA 2: GGTTTGATTACCATGAGGTAGTATACCTTCGTATTTGCATCGTTCTCGAA
For B1, the binding result is “no binding”.

B2: desA1 control (substituted motif) (dsDNA)
DNA 1: CCGTTCGAGACGACTAATGAGGTGCAACAATATACGATCACCATCGGTA
DNA 2: TACCGATGGTGATCGTATATTGTTGCACCTCATTAGTCGTCTCGAACGG
With B2, the binding result is on record as “no binding”.
